Measured values from paper PMC4351158 (Structure (London, England : 1993), 2015).
Positions count from the first letter of the chain named. Where no end group is shown, it is not given here. fluorescein = fluorescein, a fluorescent label on the peptide N-terminus

Experiments:
Test in all cases: fluorescence polarisation
DegS L164A = molecular target: T1, DegS L164A (E. coli, UniProt P0AEE3 27-355, L164A)
T1 sequence (looked up): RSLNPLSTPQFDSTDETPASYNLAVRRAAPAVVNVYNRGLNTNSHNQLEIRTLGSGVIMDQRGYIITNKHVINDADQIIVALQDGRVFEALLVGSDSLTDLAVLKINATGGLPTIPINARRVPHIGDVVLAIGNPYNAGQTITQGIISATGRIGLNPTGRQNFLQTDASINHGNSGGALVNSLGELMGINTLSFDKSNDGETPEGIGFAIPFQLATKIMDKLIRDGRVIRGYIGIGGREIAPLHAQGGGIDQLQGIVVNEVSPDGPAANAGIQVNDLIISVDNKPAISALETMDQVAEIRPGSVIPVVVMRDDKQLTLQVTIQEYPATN

DegS T169A = molecular target: T2, DegS T169A (E. coli, UniProt P0AEE3 27-355, T169A)
T2 sequence (looked up): T1 sequence (looked up) with A138L, T143A

DegS Q191A/H198P = molecular target: T3, DegS Q191A/H198P (E. coli, UniProt P0AEE3 27-355, Q191A | H198P)
T3 sequence (looked up): T1 sequence (looked up) with A138L, Q165A, H172P

DegS N197A/H198P = molecular target: T4, DegS N197A/H198P (E. coli, UniProt P0AEE3 27-355, N197A | H198P)
T4 sequence (looked up): T1 sequence (looked up) with A138L, N171A, H172P

Kd (DegS L164A): 2.8 ± 0.6 µM
Kd (DegS T169A): 1.8 ± 0.1 µM
Kd (DegS Q191A/H198P): 1.4 ± 0.1 µM
Kd (DegS N197A/H198P): 0.7 ± 0.1 µM
Binder: fluorescein-DNRDGNVYYF [fluorescent OMP peptide fluorescein-DNRDGNVYYF]
